Blank lines part the entries; values can stand above or below the binder they belong to.
Columns and labels:
[1] = target: T1, 4H3588-AA; experiment: two-hybrid library CCmax; details: mean of both orientations;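 note: natural log of median RNA to DNA barcode read ratio; higher means stronger binding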
T1 chain: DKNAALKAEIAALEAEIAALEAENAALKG

[2] = target: T2, 4H3606-AA; experiment: two-hybrid library CCmax; details: mean of both orientations;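 note: natural log of median RNA to DNA barcode read ratio; higher means stronger binding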
T2 chain: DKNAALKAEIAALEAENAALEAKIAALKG

[3] = target: T3, 4H3697-AA; experiment: two-hybrid library CCmax; details: mean of both orientations;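 note: natural log of median RNA to DNA barcode read ratio; higher means stronger binding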
T3 chain: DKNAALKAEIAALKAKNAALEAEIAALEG

[4] = target: T4, 4H3631-AA; experiment: two-hybrid library CCmax; details: mean of both orientations;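 note: natural log of median RNA to DNA barcode read ratio; higher means stronger binding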
T4 chain: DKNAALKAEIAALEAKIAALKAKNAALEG

[5] = target: T5, 4H3865-AA; experiment: two-hybrid library CCmax; details: mean of both orientations;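 note: natural log of median RNA to DNA barcode read ratio; higher means stronger binding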
T5 chain: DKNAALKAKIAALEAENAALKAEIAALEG

[6] = target: T6, 4H3718-AA; experiment: two-hybrid library CCmax; details: mean of both orientations;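 note: natural log of median RNA to DNA barcode read ratio; higher means stronger binding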
T6 chain: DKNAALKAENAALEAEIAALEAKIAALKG

[7] = target: T7, 4H384-AA; experiment: two-hybrid library CCmax; details: mean of both orientations
T7 chain: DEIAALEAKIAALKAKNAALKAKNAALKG

[8] = target: T8, 4H3413-AA; experiment: two-hybrid library CCmax; details: mean of both orientations
T8 chain: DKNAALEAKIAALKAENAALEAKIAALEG

[9] = target: T9, 4H982-AA; experiment: two-hybrid library CCmax; details: mean of both orientations
T9 chain: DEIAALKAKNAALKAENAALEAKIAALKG

[10] = target: T10, 4H340-AA; experiment: two-hybrid library CCmax
T10 chain: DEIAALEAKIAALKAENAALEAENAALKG

[11] = target: T11, 4H697-AA; experiment: two-hybrid library CCmax; details: mean of both orientations
T11 chain: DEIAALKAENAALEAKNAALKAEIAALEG

[12] = target: T12, 4H717-bH; experiment: two-hybrid library CCNG1
T12 chain: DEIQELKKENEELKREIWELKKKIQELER

[13] = target: T13, 4H72-bH; experiment: two-hybrid library CCNG1
T13 chain: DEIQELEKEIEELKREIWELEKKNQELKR

[14] = target: T14, 4H754-bH; experiment: two-hybrid library CCNG1
T14 chain: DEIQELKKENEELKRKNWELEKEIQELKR

[15] = target: T15, 4H883-bH; experiment: two-hybrid library CCNG1
T15 chain: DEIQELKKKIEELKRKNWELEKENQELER

[16] = target: T16, 4H918-bH; experiment: two-hybrid library CCNG1
T16 chain: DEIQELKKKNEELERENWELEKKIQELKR

[17] = target: T17, 4H797-bH; experiment: two-hybrid library CCNG1
T17 chain: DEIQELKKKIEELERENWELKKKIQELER

[18] = target: T18, 4H687-bH; experiment: two-hybrid library CCNG1
T18 chain: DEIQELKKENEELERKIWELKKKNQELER

[19] = target: T19, 4H953-bH; experiment: two-hybrid library CCNG1
T19 chain: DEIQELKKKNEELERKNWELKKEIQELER

[20] = target: T20, 4H908-bH; experiment: two-hybrid library CCNG1
T20 chain: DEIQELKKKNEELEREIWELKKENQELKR

[21] = target: T21, 4H967-bH; experiment: two-hybrid library CCNG1
T21 chain: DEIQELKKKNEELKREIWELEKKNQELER

[22] = target: T22, 4H607-bH; experiment: two-hybrid library CCNG1
T22 chain: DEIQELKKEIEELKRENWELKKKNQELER

[23] = target: T23, 4H568-bH; experiment: two-hybrid library CCNG1
T23 chain: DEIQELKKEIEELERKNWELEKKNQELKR

[24] = target: T24, 4H380-AA; experiment: two-hybrid library CCmax; details: mean of both orientations
T24 chain: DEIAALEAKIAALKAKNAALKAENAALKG

[25] = target: T25, 4H3619-AA; experiment: two-hybrid library CCmax
T25 chain: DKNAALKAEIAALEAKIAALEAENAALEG

[26] = target: T26, 4H63-AA; experiment: two-hybrid library CCmax; details: mean of both orientations
T26 chain: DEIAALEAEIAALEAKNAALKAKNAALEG

[27] = target: T27, 4H3974-AA; experiment: two-hybrid library CCmax; details: mean of both orientations
T27 chain: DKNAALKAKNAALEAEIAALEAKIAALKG

[28] = target: T28, 4H3629-AA; experiment: two-hybrid library CCmax; details: mean of both orientations
T28 chain: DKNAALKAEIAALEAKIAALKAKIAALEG

[29] = target: T29, 4H432-AA; experiment: two-hybrid library CCmax; details: mean of both orientations
T29 chain: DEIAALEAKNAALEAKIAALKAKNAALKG

[30] = target: T30, 4H3915-AA; experiment: two-hybrid library CCmax; details: mean of both orientations
T30 chain: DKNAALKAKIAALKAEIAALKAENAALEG

[31] = target: T31, 4H446-AA; experiment: two-hybrid library CCmax; details: mean of both orientations
T31 chain: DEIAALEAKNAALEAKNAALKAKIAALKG

[32] = target: T32, 4H3777-AA; experiment: two-hybrid library CCmax; details: mean of both orientations
T32 chain: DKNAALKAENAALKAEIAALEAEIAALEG

[33] = target: T33, 4H949-bH; experiment: two-hybrid library CCNG1
T33 chain: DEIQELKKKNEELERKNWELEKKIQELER

[34] = target: T34, 4H3939-AA; experiment: two-hybrid library CCmax; details: mean of both orientations
T34 chain: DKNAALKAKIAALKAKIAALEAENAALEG

[35] = target: T35, 4H428-AA; experiment: two-hybrid library CCmax; details: mean of both orientations
T35 chain: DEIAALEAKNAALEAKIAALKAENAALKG

[36] = target: T36, 4H478-AA; experiment: two-hybrid library CCmax; details: mean of both orientations
T36 chain: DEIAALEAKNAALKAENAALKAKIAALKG

[37] = target: T37, 4H3666-AA; experiment: two-hybrid library CCmax; details: mean of both orientations
T37 chain: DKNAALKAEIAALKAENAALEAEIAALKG

[38] = target: T38, 4H497-AA; experiment: two-hybrid library CCmax; details: mean of both orientations
T38 chain: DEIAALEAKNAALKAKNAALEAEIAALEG

[39] = target: T39, 4H3628-AA; experiment: two-hybrid library CCmax; details: mean of both orientations
T39 chain: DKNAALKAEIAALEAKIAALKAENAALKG

[40] = target: T40, 4H3709-AA; experiment: two-hybrid library CCmax; details: mean of both orientations
T40 chain: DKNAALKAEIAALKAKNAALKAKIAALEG

[41] = target: T41, 4H3591-AA; experiment: two-hybrid library CCmax
T41 chain: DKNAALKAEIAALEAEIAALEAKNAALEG

[42] = target: T42, 4H675-AA; experiment: two-hybrid library CCmax
T42 chain: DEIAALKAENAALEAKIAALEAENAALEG

[43] = target: T43, 4H3920-AA; experiment: two-hybrid library CCmax; details: mean of both orientations
T43 chain: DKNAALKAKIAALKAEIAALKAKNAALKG

[44] = target: T44, 4H656-AA; experiment: two-hybrid library CCmax; details: mean of both orientations
T44 chain: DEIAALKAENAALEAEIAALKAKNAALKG

[45] = target: T45, 4H971-AA; experiment: two-hybrid library CCmax; details: mean of both orientations
T45 chain: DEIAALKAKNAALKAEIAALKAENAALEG

[46] = target: T46, 4H391-AA; experiment: two-hybrid library CCmax; details: mean of both orientations
T46 chain: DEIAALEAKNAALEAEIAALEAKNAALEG

Binder: DEIAALEAKIAALKAENAALEAENAALKG [4H340-AA]
interaction score [1]: -0.126
interaction score [2]: -0.46
interaction score [3]: -1.98
interaction score [4]: -0.0653
interaction score [5]: -1.26
interaction score [6]: -0.983
interaction score [7]: 1.51
interaction score [8]: -1.52
interaction score [9]: -1.24
interaction score [10]: 0.807
interaction score [11]: -1.32

Binder: DEIQELKKEIEELKRENWELKKKNQELER [4H607-bH]
interaction score [12]: 0.512
interaction score [13]: -1.24
interaction score [14]: -0.342
interaction score [15]: 0.522
interaction score [16]: -0.801
interaction score [17]: -1.49
interaction score [18]: -0.72
interaction score [19]: -0.825
interaction score [20]: -1.04
interaction score [21]: -2
interaction score [22]: 0.163

Binder: DEIQELKKEIEELERKNWELEKKNQELKR [4H568-bH]
interaction score [12]: 0.643
interaction score [13]: -1.52
interaction score [14]: 0.644
interaction score [15]: 1
interaction score [16]: -0.673
interaction score [17]: -0.219
interaction score [18]: -0.423
interaction score [23]: -1.25
interaction score [19]: -1.24
interaction score [20]: 0.115
interaction score [21]: 0.179
interaction score [22]: 0.0933

Binder: DEIQELKKKNEELERKNWELEKKIQELER [4H949-bH]
interaction score [33]: 0.634

The next lines start with the values.

interaction score [24]: -0.137
interaction score [25]: -1.28
interaction score [26]: -0.357
interaction score [27]: -0.337
interaction score [28]: 0.411
interaction score [29]: -0.708
interaction score [30]: -0.429
interaction score [31]: -1.21
interaction score [32]: -1.36
Binder: DKNAALKAEIAALEAKIAALEAENAALEG [4H3619-AA]

interaction score [34]: 1.03
interaction score [35]: -1.03
interaction score [36]: -1.53
interaction score [37]: -1.67
interaction score [38]: -1.86
interaction score [39]: -0.555
interaction score [40]: -0.696
interaction score [41]: -1.51
interaction score [42]: -1.63
interaction score [43]: 0.759
interaction score [44]: -0.984
interaction score [45]: -1.24
interaction score [46]: -2.02
Binder: DKNAALKAEIAALEAEIAALEAKNAALEG [4H3591-AA]
